# According to US20210246166A1 (Bayer, published 2021):
# Bridge positions count the residues as written; N and C are the ends. Square brackets hold non-standard residues; d marks the D form. Ends that are not written are not given here. Pro(4-spirocPr) = O=C(O)[C@@H]1CC2(CC2)CN1; NMeI = CC[C@H](C)[C@H](NC)C(=O)O; tBuAla = CC(C)(C)C[C@H](N)C(=O)O; Pen = CC(C)(S)[C@H](N)C(=O)O; NMeC = CN[C@@H](CS)C(=O)O; Orn = NCCC[C@H](N)C(=O)O; Abu = CC[C@H](N)C(=O)O; Sar = CNCC(=O)O
# T1: recombinant rat MASP1 active protease (amino acids 302-704, C-terminal His Tag) (rat, UniProt Q8CHN8 302-704)
# T1 sequence: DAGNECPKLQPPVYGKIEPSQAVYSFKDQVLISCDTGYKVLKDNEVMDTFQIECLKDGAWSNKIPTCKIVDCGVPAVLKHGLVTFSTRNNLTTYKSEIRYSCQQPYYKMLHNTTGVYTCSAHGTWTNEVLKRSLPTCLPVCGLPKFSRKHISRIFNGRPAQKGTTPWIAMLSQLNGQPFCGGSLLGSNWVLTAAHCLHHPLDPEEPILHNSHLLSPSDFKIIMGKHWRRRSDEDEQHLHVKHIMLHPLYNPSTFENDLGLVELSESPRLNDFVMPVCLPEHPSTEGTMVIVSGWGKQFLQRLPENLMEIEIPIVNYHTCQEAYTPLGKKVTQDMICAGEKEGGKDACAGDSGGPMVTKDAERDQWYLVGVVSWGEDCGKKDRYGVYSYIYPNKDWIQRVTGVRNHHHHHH
# B1: Example 49: (Orn)-IC+SRS-((tBu)A)-PPI-(Pen)+IPD-NH2 (peptide)
# peptide: [Orn]ICSRS[tBuAla]PPI[Pen]IPD-NH2
# modifications: disulfide 3-11; N-terminus assumed
# SMILES: CC[C@H](C)[C@H](NC(=O)[C@@H](N)CCCN)C(=O)N[C@H]1CSSC(C)(C)[C@@H](C(=O)N[C@H](C(=O)N2CCC[C@H]2C(=O)N[C@@H](CC(=O)O)C(N)=O)[C@@H](C)CC)NC(=O)[C@H]([C@@H](C)CC)NC(=O)[C@@H]2CCCN2C(=O)[C@@H]2CCCN2C(=O)[C@H](CC(C)(C)C)NC(=O)[C@H](CO)NC(=O)[C@H](CCCNC(=N)N)NC(=O)[C@H](CO)NC1=O
# B2: Example 66: (Abu)-IC+SRS-((tBu)A)-PPIC+IPD-NH2 (peptide)
# peptide: [Abu]ICSRS[tBuAla]PPICIPD-NH2
# modifications: disulfide 3-11; N-terminus assumed
# SMILES: CC[C@H](N)C(=O)N[C@H](C(=O)N[C@H]1CSSC[C@@H](C(=O)N[C@H](C(=O)N2CCC[C@H]2C(=O)N[C@@H](CC(=O)O)C(N)=O)[C@@H](C)CC)NC(=O)[C@H]([C@@H](C)CC)NC(=O)[C@@H]2CCCN2C(=O)[C@@H]2CCCN2C(=O)[C@H](CC(C)(C)C)NC(=O)[C@H](CO)NC(=O)[C@H](CCCNC(=N)N)NC(=O)[C@H](CO)NC1=O)[C@@H](C)CC
# B3: Example 65: LIC+SRS-((tBu)A)-PPI-((N-Me)C)+I-NH2 (peptide)
# peptide: LICSRS[tBuAla]PPI[NMeC]I-NH2
# modifications: disulfide 3-11; N-terminus assumed
# SMILES: CC[C@H](C)[C@H](NC(=O)[C@@H]1CSSC[C@H](NC(=O)[C@@H](NC(=O)[C@@H](N)CC(C)C)[C@@H](C)CC)C(=O)N[C@@H](CO)C(=O)N[C@@H](CCCNC(=N)N)C(=O)N[C@@H](CO)C(=O)N[C@@H](CC(C)(C)C)C(=O)N2CCC[C@H]2C(=O)N2CCC[C@H]2C(=O)N[C@@H]([C@@H](C)CC)C(=O)N1C)C(N)=O
# B4: Example 48: AIC+SRS-((tBu)A)-PPI-((N-Me)C)+IPD-NH2 (peptide)
# peptide: AICSRS[tBuAla]PPI[NMeC]IPD-NH2
# modifications: disulfide 3-11; N-terminus assumed
# SMILES: CC[C@H](C)[C@H](NC(=O)[C@H](C)N)C(=O)N[C@H]1CSSC[C@@H](C(=O)N[C@H](C(=O)N2CCC[C@H]2C(=O)N[C@@H](CC(=O)O)C(N)=O)[C@@H](C)CC)N(C)C(=O)[C@H]([C@@H](C)CC)NC(=O)[C@@H]2CCCN2C(=O)[C@@H]2CCCN2C(=O)[C@H](CC(C)(C)C)NC(=O)[C@H](CO)NC(=O)[C@H](CCCNC(=N)N)NC(=O)[C@H](CO)NC1=O
# B5: Example 73: ((N-Me)G)-IC+SRS-((tBu)A)-PPI-(Pen)+IP-(PEG4-CH2CO2H (15 atoms))-NH2 (peptide)
# peptide: [Sar]ICSRS[tBuAla]PPI[Pen]IP-{PEG4‑CH2CO2H (15 atoms)-NH2}
# modifications: disulfide 3-11
# B6: Example 45: AIC+SRS-((tBu)A)-P-((6S)-5-Azaspiro[2.4]heptane-6-carboxylic acid)-I-(Pen)+IPD-NH2 (peptide)
# peptide: AICSRS[tBuAla]P[Pro(4-spirocPr)]I[Pen]IPD-NH2
# modifications: disulfide 3-11; N-terminus assumed
# SMILES: CC[C@H](C)[C@H](NC(=O)[C@H](C)N)C(=O)N[C@H]1CSSC(C)(C)[C@@H](C(=O)N[C@H](C(=O)N2CCC[C@H]2C(=O)N[C@@H](CC(=O)O)C(N)=O)[C@@H](C)CC)NC(=O)[C@H]([C@@H](C)CC)NC(=O)[C@@H]2CC3(CC3)CN2C(=O)[C@@H]2CCCN2C(=O)[C@H](CC(C)(C)C)NC(=O)[C@H](CO)NC(=O)[C@H](CCCNC(=N)N)NC(=O)[C@H](CO)NC1=O
# B7: Example 59: Ac-G-((N-Me)I)-C+SRSLPPIC+IPD-OH (peptide)
# peptide: Ac-G[NMeI]CSRSLPPICIPD-OH
# modifications: disulfide 3-11
# SMILES: CC[C@H](C)[C@@H]1NC(=O)[C@@H]2CCCN2C(=O)[C@@H]2CCCN2C(=O)[C@H](CC(C)C)NC(=O)[C@H](CO)NC(=O)[C@H](CCCNC(=N)N)NC(=O)[C@H](CO)NC(=O)[C@@H](NC(=O)[C@H]([C@@H](C)CC)N(C)C(=O)CNC(C)=O)CSSC[C@@H](C(=O)N[C@H](C(=O)N2CCC[C@H]2C(=O)N[C@@H](CC(=O)O)C(=O)O)[C@@H](C)CC)NC1=O
# Biological target: T1, recombinant rat MASP1 active protease …
# Test: cell-based or functional assay
row,rat MASP1 IC50 [nM],Binder
1,60,B1
2,70,B2
3,7.2,B3
4,51.5,B4
5,43,B5
6,40,B6
7,250,B7
